Experimental data as given in patent publication US7612163B1, “Prokineticin 2β peptide and its use” (Janssen Pharmaceutica N.V., priority 2004, dated 2009).
Ends that are not written are not given here.

How the values were obtained:
[1] = biological target: T1, human prokineticin receptor 2 (PKR2) (human, UniProt Q8NFJ6 1-384); test: cell-based or functional assay
[2] = biological target: T2, human prokineticin receptor 1 (PKR1) (human, UniProt Q8TCW9 1-393); test: cell-based or functional assay
T2 sequence (Q8TCW9 whole entry): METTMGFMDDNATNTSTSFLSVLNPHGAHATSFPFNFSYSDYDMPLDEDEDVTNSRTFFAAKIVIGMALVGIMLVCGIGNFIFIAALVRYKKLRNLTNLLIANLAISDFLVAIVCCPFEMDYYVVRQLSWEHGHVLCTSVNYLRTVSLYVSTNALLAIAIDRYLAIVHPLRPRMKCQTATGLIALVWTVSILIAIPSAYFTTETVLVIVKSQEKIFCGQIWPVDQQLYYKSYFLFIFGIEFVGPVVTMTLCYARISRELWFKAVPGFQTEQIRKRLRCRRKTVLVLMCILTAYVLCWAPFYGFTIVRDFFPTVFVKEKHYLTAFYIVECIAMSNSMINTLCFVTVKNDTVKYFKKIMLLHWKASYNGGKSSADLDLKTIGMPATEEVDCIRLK

[3] = biological target: T1, human prokineticin receptor 2 (PKR2); test: radioligand competition against 100 pM 125I-PK2-f on COS-7 cells expressing PKR2
Description: (§1) Radio-Ligand Binding Assays. PKR1 and PKR2 in the expression vector pCIneo (Promega) were transfected into COS-7 cells using LipofectAmine (Invitrogen). Two days after transfection, cells were detached from the culture dishes by 10 mM EDTA in PBS, washed with Dulbecco's Modified Eagle's Medium (DMEM) and seeded in 96-well opaque polylysine-coated plates (BD Biosciences, San Jose, Calif.) at a density of 50,000 cells per well. […] The binding assays were performed in DMEM plus 50 mM HEPES, pH 7.2 and 1% bovine serum albumin in a final volume of 100 µl. The binding assays were carried out at room temperature for 1 hour. After the plates were washed three times with ice cold PBS, Microscint-40 (Packard, Meriden, Conn.) was added and the plates were counted on a Topcount (Packard).
(§2) Different concentrations of PK1, PK2 or PK2β were added to the assays as the competitors. All assays were performed in triplicates. The results are mean values (±S.E.M) of triplicates. Figure 4B:
(§3) Prokineticins bind PKR1 and PKR2 with different affinities. With the purified PK2β available, it was investigated whether PK2β binds PKR1 or PKR2 in comparison with PK1 and PK2. […] Membranes from COS-7 cells transiently expressing PKR1 and PKR2 were used in competition binding assays. The results (FIG. 4A) indicate that PK1, PK2, and PK2β all bind PKR1 with high affinities, with the rank order of potency PK2>PK2β≅PK1.

[4] = biological target: T1, human prokineticin receptor 2 (PKR2); test: cell-based or functional assay; remark: listed apart in the source
[5] = biological target: T2, human prokineticin receptor 1 (PKR1); test: cell-based or functional assay; remark: listed apart in the source
[6] = biological target: T2, human prokineticin receptor 1 (PKR1); test: radioligand competition against 100 pM 125I-PK2-f on COS-7 cells expressing PKR1
Description: as §1, §2, §3

[7] = biological target: T2, human prokineticin receptor 1 (PKR1); test: radioligand binding on PKR1 expressing cells
[8] = biological target: T1, human prokineticin receptor 2 (PKR2); test: radioligand binding on PKR2 expressing cells
[9] = biological target: T3, PKR2 (Homo sapiens, UniProt Q8NFJ6); test: Radioligand competition binding assay (125I-PK2-f), PKR2 expressing COS-7 cells; set-up: The full-length cDNA coding regions for both PKR1 and PKR2 were PCR-amplified from human fetal brain cDNA; expressed in transfected cells; host or cells: COS-7 (transient, pCIneo); conditions: FIG. 4B
T3 sequence (Q8NFJ6 whole entry): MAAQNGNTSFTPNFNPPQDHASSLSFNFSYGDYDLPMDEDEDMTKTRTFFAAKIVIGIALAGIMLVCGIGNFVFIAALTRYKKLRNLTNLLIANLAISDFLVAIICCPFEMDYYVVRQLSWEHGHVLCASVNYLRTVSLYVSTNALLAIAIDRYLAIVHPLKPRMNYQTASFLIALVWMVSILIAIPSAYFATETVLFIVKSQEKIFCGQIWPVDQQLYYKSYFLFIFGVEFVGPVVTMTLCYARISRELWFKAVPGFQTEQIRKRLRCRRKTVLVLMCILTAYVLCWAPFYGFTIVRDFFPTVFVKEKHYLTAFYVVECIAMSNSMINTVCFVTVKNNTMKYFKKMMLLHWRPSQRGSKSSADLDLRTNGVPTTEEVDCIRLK
Description: (§4) FIGS. 4A and 4B graphically illustrate that PKs bind the PKR1 and PKR2 with different affinities. COS-7 cells transiently expressing PKR1 or PKR2 were seeded to 96-well plates. ^125I-labeled PK2-f was added to each well at a final concentration of 100 pM. Different concentrations of PK1, PK2 or PK2β were added to the assays as the competitors. All assays were performed in triplicates. The results are mean values (±S.E.M) of triplicates. FIG. 4A provides the results of the binding assay using PKR1 expressing cells.
(§5) Expression, purification, and iodination of C-terminal FLAG-tagged PK2. C-terminal FLAG-tagged PK2 (PK2-f) was constructed as described (Soga et al., 2002). Two primers P9: ATCGAGAATTCGCCACCATGAGGAGCCTGTGCTGCGCCC (SEQ.ID.NO.:11) and P10: GGATCCCTACTTATCGTCGTCATCCTTATAATCCTTTTGGGCTAAACA (SEQ.ID.NO.:12) were used to amplify human whole brain cDNA (Clontech). The PCR-amplified PK2-f was cloned into a mammalian expression vector pCMV-sport1 (Invitrogen). The resulting clones were sequenced to confirm the identities and transfected into COS-7 cells using LipofectAmine (Invitrogen). Three days after transfection, the cell culture supernatant was collected and run through an ANTI-FLAG M2 agarose (Sigma) affinity column. The column was washed with PBS and eluted with […] Glycine HCl, pH 3.0. The eluted protein fraction was immediately neutralized with 1 M Tris-HCl, pH 8.0 and then further purified by reverse-phase HPLC using a C4 column (Vydac). The purified recombinant PK2-f protein was iodinated using Iodogen reagent (Pierce, Rockford, Ill.) and ^125I-NaI (PerkinElmer, Boston, Mass.) as described by Pierce. The iodinated PK2-f was purified by a G-50 (Amersham Pharmacia Biotech) gel filtration column.
(§6) Radio-Ligand Binding Assays. PKR1 and PKR2 in the expression vector pCIneo (Promega) were transfected into COS-7 cells using LipofectAmine (Invitrogen). […] After the plates were washed three times with ice cold PBS, Microscint-40 (Packard, Meriden, Conn.) was added and the plates were counted on a Topcount (Packard).

[10] = biological target: T3, PKR2; test: cAMP accumulation (cAMP [125I] FlashPlate) in HEK 293 cells co-expressing PKR2/Gs; assay type: cell-based; set-up: The full-length cDNA coding regions for both PKR1 and PKR2 were PCR-amplified from human fetal brain cDNA; expressed in transfected cells; host or cells: HEK293 (transient, pCIneo, co-transfected with Gs plasmid); conditions: FIG. 8C
Description: FIGS. 8B and 8C illustrate results from HEK 293 cells co-expressing PKR1/Gs (FIG. 8B) or PKR2/Gs (FIG. 8C) stimulated with different PKs at various concentrations (the accumulated cAMP was measured by a cAMP [^125I] FlashPlate Assay kit; the results are mean values (±S.E.M) of triplicate experiments (legend: ▪, PK1; ▴, PK2; ▾, PK2β)).
In a different experiment, PKR1 and PKR2 in the expression vector pCIneo (Promega) were co-transfected with the Gs expression plasmid into HEK293 cells using LipofectAmine (Invitrogen). Two days after transfection, cells were detached with 10 mM EDTA in PBS, resuspended in Dulbecco's Modified Eagle's Medium/F12 (DMEM/F12) media, and then plated on 96-well plates at a density of 50,000 cells per well. Two hours after the seeding, cells culture medium was replaced with DMEM/F12 containing 2 mM isobutylmethylxanthine (Sigma) and incubated for 30 min. Different concentrations of PK1, PK2 or PK2β were added to cells and incubated for an additional 30 min in a final volume of 200 μl/well. The reaction was stopped and cAMP was extracted by adding 20 μl of 0.5 N HCl to each well. Cell culture media were tested for cAMP concentrations by the cAMP [^125I] FlashPlate Assay kit (PerkinElmer) as described by the manufacturer.

[11] = biological target: PKR1 (Homo sapiens, UniProt Q8TCW9); test: Radioligand competition binding assay (125I-PK2-f), PKR1 expressing COS-7 cells; set-up: The full-length cDNA coding regions for both PKR1 and PKR2 were PCR-amplified from human fetal brain cDNA; expressed in transfected cells; host or cells: COS-7 (transient, pCIneo); conditions: FIG. 4A
Chain of PKR1 (Q8TCW9 whole entry): as the sequence (Q8TCW9 whole entry) above
Description: as §4, §5, §6

T1 sequence (Q8NFJ6 whole entry): as the sequence (Q8NFJ6 whole entry) above

B1: human prokineticin 2 (PK2) (ligand)
chain: AVITGACDKDSQCGGGMCCAVSIWVKSIRICTPMGKLGDSCHPLTRKVPFFGRRMHHTCPCLPGLACLRTSFNRFICLAQK
notes: Made in COS-7 cells with an N-terminal FLAG tag that was removed with enterokinase, then HPLC purified; also called mammalian Bv8
EC50 for Ca2+ mobilization in PKR expressing HEK 293 cells [1]: 3.6 nM | EC50 for Ca2+ mobilization in PKR expressing HEK 293 cells [2]: 0.8 nM | IC50 [3]: 6.4 nM | EC50 for stimulation of cAMP accumulation (β-galactosidase reporter), SK-N-MC cells [4]: 12.1 nM | EC50 for stimulation of cAMP accumulation, HEK 293 cells [4]: 41 nM | EC50 for stimulation of cAMP accumulation (β-galactosidase reporter), SK-N-MC cells [5]: 1.27 nM | EC50 for stimulation of cAMP accumulation, HEK 293 cells [5]: 3.17 nM | IC50 [6]: 4.5 nM

B2: 125I-labeled C-terminal FLAG-tagged PK2 (ligand)
chain: B1 chain
modifications: 125I on the Tyr in the FLAG-tag
notes: Expressed from human PK2 cDNA with its own signal peptide and secreted by COS-7 cells; also called PK2-f; not shown: C-terminal FLAG tag
binding result [7]: binds | binding result [8]: binds

B3: prokineticin 2 (protein)
chain: B1 chain
notes: recombinant human PK2 peptide expressed in COS-7 cells
Binding to PKR2, in words [9]: high affinity | cAMP accumulation in PKR2 expressing HEK293 cells, in words [10]: high-potency ligands | Binding to PKR1, in words [11]: high affinities

B4: human PK2β mature peptide (ligand)
chain: AVITGACDKDSQCGGGMCCAVSIWVKSIRICTPMGKLGDSCHPLTRKNNFGNGRQE
modifications: ends and bridges not checked; cysteine pairing not given here
notes: Proteolytically processed form of PK2L secreted by COS-7 cells; The FLAG tag was removed with enterokinase; also called processed product of PK2L
EC50 for Ca2+ mobilization in PKR expressing HEK 293 cells [1]: 80 nM | EC50 for Ca2+ mobilization in PKR expressing HEK 293 cells [2]: 1.5 nM | EC50 for stimulation of cAMP accumulation, HEK 293 cells [4]: > 1000 nM | EC50 for stimulation of cAMP accumulation, HEK 293 cells [5]: 23.4 nM | IC50 [6]: 34.6 nM

B5: human prokineticin 1 (PK1) mature peptide (ligand, UniProt P58294 20-105, looked up)
chain: AVITGACERDVQCGAGTCCAISLWLRGLRMCTPLGREGEECHPGSHKVPFFRKRKHHTCPCLPNLLCSRFPDGRYRCSMDLKNINF
notes: mature; also called EG-VEGF
EC50 for Ca2+ mobilization in PKR expressing HEK 293 cells [1]: 7.7 nM | EC50 for Ca2+ mobilization in PKR expressing HEK 293 cells [2]: 1.1 nM | IC50 [3]: 52.2 nM | EC50 for stimulation of cAMP accumulation (β-galactosidase reporter), SK-N-MC cells [4]: 20 nM | EC50 for stimulation of cAMP accumulation, HEK 293 cells [4]: 60 nM | EC50 for stimulation of cAMP accumulation (β-galactosidase reporter), SK-N-MC cells [5]: 8.34 nM | EC50 for stimulation of cAMP accumulation, HEK 293 cells [5]: 16.8 nM | IC50 [6]: 27.6 nM

B6: prokineticin 1 (protein)
chain: B5 chain
notes: recombinant human PK1 mature peptide, also known as endocrine gland vascular endothelial growth factor
Binding to PKR2, in words [9]: high affinity | cAMP accumulation in PKR2 expressing HEK293 cells, in words [10]: high-potency ligands | Binding to PKR1, in words [11]: high affinities

B7: 125I-labeled human PK1 (ligand, UniProt P58294 20-105, looked up)
chain: B5 chain
modifications: 125I at Tyr75
notes: mature; Told of only in the discussion, as an attempted radioligand
binding result [7]: binds | binding result [8]: binds
